Values of other authors in paper doi:10.1101/2025.05.26.656075.

Molecular target: neonatal Fc receptor (FcRn), biotinylated (UniProt P55899+P61769)
Assay: not stated
Conditions: cited from earlier work

| Substance | KD (pH 6.0) | KD (pH low pH (number not given)) | KD (pH neutral pH (number not given)) |
| --- | --- | --- | --- |
| MFc4 (IgG4 monomeric Fc of Shan et al.) L351F;S354E;T366R;P395K;F405R;Y407E;L428M;L432C;H433S;N434Y;Y436L;T437C;delQ438 (as printed) | 5 nM | – | – |
| native dimeric human IgG1 / IgG1 Fc (literature values) | 2,140 nM | 1,377 nM | ∼88,000 nM |
